Article PMC12520543, “An Apple Susceptibility‐Related LRR Receptor‐Like Kinase MdRLKT21 Activates Plant Immunity by Hijacking a Trans‐Kingdom Fungal microRNA‐Like RNA” (Advanced Science, 2025)

Molecular target: T1, GST-MdRFP1-His (apple (M. domestica), labeled with the Monolith NT Protein Labeling Kit RED)
T1 construct: MdRFP1, apple C3HC4-type RING finger protein 1, GenBank XP_017184215.2; Vector pGEX-6P-1; The results name GST-MdRFP1-His for the MST; the MST methods say only 'MdRFP1 was purified and labeled'; also called labeled MdRFP1; source: E. coli BL21 (DE3), purified (glutathione agarose and HisPur Ni-NTA resin are named for the set of recombinant proteins); not shown: GST, N-terminal, kept; His, …
Test: MST; labeled MdRFP1 (Monolith NT Protein Labeling Kit RED) incubated with a gradient dilution of MdRLKT21-KD for 30 min at RT; standard treated capillaries; Monolith NT.115
Conditions: both partners purified

T1 sequence (main, as listed by the source): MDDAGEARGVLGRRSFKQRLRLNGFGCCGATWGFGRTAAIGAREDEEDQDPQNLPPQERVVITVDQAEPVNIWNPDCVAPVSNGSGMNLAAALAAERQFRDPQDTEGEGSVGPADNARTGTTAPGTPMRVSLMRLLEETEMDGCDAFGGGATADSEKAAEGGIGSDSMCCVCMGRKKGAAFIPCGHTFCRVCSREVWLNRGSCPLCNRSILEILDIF

B1: GST-MdRLKT21-KD (domain or fragment)
chain: RVRSRAKEGKTGKEKVVKEVAEVVVVEEGEGQNGKFVVLDEGFGLDLEDLLRASAYVVGKSRSGITYRVVAGSGGKGPGAAPSVVAVRRLSEGDATWRLKEFEAEVEAIGKVVHPNIVRLRAYYYASDEKLLVTDFIRNGSLYNALHGGPSNSLPPLPWTARLKIAQGTARGLMYIHEHSTRKYVHGNIKSTKILLNDDLQPYISGFGLARLMLGTSKFTTSASRRQNSNESIVASGLVVPTSSTIYLAPEARISRSKFTQKCDVYSFGIVLLEILTGRLPDEGLENGGKGLESLVRKTFRDERPLSEIIDPALLQEVYAKKQVVEAFHIALNCTELDPELRPRMKTVSESLDRLKLQC
  Kd: 14 ± 4.24 nM
